Source: patent US20160083428A1 (CARMEL HAIFA UNIVERSITY ECONOMIC, published 2016)
Ends that are not written are not given here. * marks the point of attachment. Biotin = O=C1N[C@H]2[C@H](CS[C@H]2CCCCC(=O)*)N1

Biological target: eukaryotic elongation factor 2 (eEF2) (rat, UniProt P05197 2-858)
Assay: pull-down from rat brain homogenate with streptavidin agarose, Western blot

binding result: no binding (tested: 20 micrograms)
B1: peptide 1 (Ac-RRQRYTPFPLGFE-Lys(Biotin)-NH2-OH), peptide derived from the G-H loop of ephrinA4 (peptide)
peptide: Ac-RRQRYTPFPLGFEK(Biotin)
modifications: not fully specified; printed as Ac-RRQRYTPFPLGFE-Lys(Biotin)-NH2-OH
notes: also called pep-ephrinA4; ephrinA4 peptide
